Test results taken from US20030082175A1 (Biogen, published 2003).

B1: FLAG-human APRIL (ligand)
chain: DYKDDDDKGPGQVQLQKQKKQHSVLHLVPINATSKDDSDVTEVMWQPALRRGRGLQAQGYGVRIQDAGVYLLYSQVLFQDVTFTMGQVVSREGQGRQETLFRCIRSMPSHPDRAYNSCYSAGVFHLHQGDILSVIIPRARAKLNLSPHGTFLGFVKL
notes: Made from plasmid ps429 (p1448) in 293T cells; also called FLAG-hAPRIL; FLAG-h APRIL

How the values were obtained:
hCD40-Fc = biological target: T1, hCD40-Fc (human, UniProt P25942 21-193, limits assumed); assay: ELISA, receptor-Fc coated, FLAG-tagged ligand detected with anti-FLAG M2
T1 construct: not shown: Fc part
T1 sequence (P25942 21-193 limits assumed): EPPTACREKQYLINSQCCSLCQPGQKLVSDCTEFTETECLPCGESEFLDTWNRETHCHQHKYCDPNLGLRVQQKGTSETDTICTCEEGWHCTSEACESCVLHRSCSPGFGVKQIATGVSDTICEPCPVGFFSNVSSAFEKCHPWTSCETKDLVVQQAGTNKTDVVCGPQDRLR

FLAG-hBAFF = biological target: T2, FLAG-hBAFF (human, UniProt Q9Y275 136-285, limits assumed); assay: immunoprecipitation from conditioned media with ProtG-Sepharose, anti-FLAG M2 blot
T2 construct: also called hKayL-440 (hBAFF); hKayL-440; not shown: FLAG tag
T2 sequence (Q9Y275 136-285 limits assumed): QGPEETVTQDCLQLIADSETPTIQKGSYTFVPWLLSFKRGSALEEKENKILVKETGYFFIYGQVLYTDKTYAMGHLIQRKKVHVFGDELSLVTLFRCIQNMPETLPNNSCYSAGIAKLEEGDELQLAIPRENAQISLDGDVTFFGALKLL
Description: (§1) Immunoprecipitation experiments: 293T cells were transfected with indicated expression plasmid (Rec-Fc or flag ligand) in 9 cm plate. Transfected cells were left for 5d in 8 ml Optimem media (Gibco-BRL). Immunoprecipitation were performed by mixing 200 ul of each receptor-conditioned media with 200 ul of each ligand-conditioned media+400 ul PBS+10 ul ProtG-Sepharose. These were rotated 1 h on a wheel, washed 4× with 1 ml PBS, then boiled in 50 ul sample buffer (+DTT). 20 ul of each immunoprecipitation was loaded per lane. Reveal blotting was done with 1 ug/ml anti-FLAG M2 mAb (Sigma, St Louis Mo.) and anti-mouse PO (1/2000). A reprobe blot with anti-human-PO was also checked: 100 ul conditioned media was precipitated with MeOH/CHC13/lysozyme. This mix was boiled in 50 ul sample buffer (+DTT) and 20 ul was loaded. A Reveal blot was performed with anti-FLAG mAb M2 (1 ug/ml) and anti-mouse-PO (1/2000).

FLAG-human APRIL = biological target: B1; assay: as above
Description: as §1

B1
binding result (hCD40-Fc): no binding

B2: hTRAIN-Fc (Fc fusion, human, UniProt Q9NS68 30-170, looked up)
chain: ESGDCRQQEFRDRSGNCVPCNQCGPGMELSKECGFGYGEDAQCVTCRLHRFKEDWGFQKCKPCLDCAVVNRFQKANCSATSDAICGDCLPGFYRKTKLVGFQDMECVPCGDPPPPYEPHCASKVNLVKIASTASSPRDTAL
notes: not shown: Fc part
binding result (FLAG-hBAFF): no binding | binding result (FLAG-human APRIL): no binding
